Measured values as given in PMC3642092 (FEBS Open Bio, 2012).

Target: F-actin (filamentous rabbit skeletal muscle actin) (rabbit, UniProt P68135 1-377)
Assay: co-sedimentation

| Binder | Kd |
| --- | --- |
| UTR261^T36C/S242C, oxidised (intra-chain disulphide, locked closed) (domain or fragment, intra-chain disulphide between the engineered cysteines C36 and C242) MAKYGEHEASPDNGQNEFSDIIKSRSDEHNDVQKKCFTKWINARFSKSGKPPINDMFTDLKDGRKLLDLLEGLTGTSLPKERGSTRVHALNNVNRVLQVLHQNNVELVNIGGTDIVDGNHKLTLGLLWSIILHWQVKDVMKDVMSDLQQTNSEKILLSWVRQTTRPYSQVNVLNFTTSWTDGLAFNAVLHRHKPDLFSWDKVVKMSPIERLEHAFSKAQTYLGIEKLLDPEDVAVQLPDKKCIIMYLTSLFEVLPQQVTID | 123 ± 14 µM |
| UTR261^T36C/S242C, reduced (domain or fragment) MAKYGEHEASPDNGQNEFSDIIKSRSDEHNDVQKKCFTKWINARFSKSGKPPINDMFTDLKDGRKLLDLLEGLTGTSLPKERGSTRVHALNNVNRVLQVLHQNNVELVNIGGTDIVDGNHKLTLGLLWSIILHWQVKDVMKDVMSDLQQTNSEKILLSWVRQTTRPYSQVNVLNFTTSWTDGLAFNAVLHRHKPDLFSWDKVVKMSPIERLEHAFSKAQTYLGIEKLLDPEDVAVQLPDKKCIIMYLTSLFEVLPQQVTID | 74.8 ± 19 µM |
